Experimental data taken from patent EP2170953B1.

Experiments:
[1] = molecular target: Aβ1-42 peptide, oligomer-enriched preparation; assay: ELISA assay 1, Ab 1:128 of 0.5 µg/ml
[2] = molecular target: Aβ1-42 peptide, monomer-enriched preparation; assay: ELISA assay 2, Ab 1:128 of 0.5 µg/ml
[3] = molecular target: Aβ1-42 peptide, oligomer-enriched preparation; assay: ELISA assay 2, Ab 1:128 of 0.5 µg/ml
[4] = molecular target: Aβ1-42 peptide, monomer-enriched preparation; assay: ELISA assay 3, Ab 1:128 of 0.5 µg/ml
[5] = molecular target: Aβ1-42 peptide, oligomer-enriched preparation; assay: ELISA assay 3, Ab 1:128 of 0.5 µg/ml
[6] = molecular target: Aβ1-42 peptide, monomer-enriched preparation; assay: ELISA mean of 3, Ab 1:1 of 0.5 µg/ml
[7] = molecular target: Aβ1-42 peptide, oligomer-enriched preparation; assay: ELISA mean of 3, Ab 1:1 of 0.5 µg/ml
[8] = molecular target: Aβ1-42 peptide, monomer-enriched preparation; assay: ELISA mean of 3, Ab 1:2 of 0.5 µg/ml
[9] = molecular target: Aβ1-42 peptide, oligomer-enriched preparation; assay: ELISA mean of 3, Ab 1:2 of 0.5 µg/ml
[10] = molecular target: Aβ1-42 peptide, monomer-enriched preparation; assay: ELISA mean of 3, Ab 1:4 of 0.5 µg/ml
[11] = molecular target: Aβ1-42 peptide, oligomer-enriched preparation; assay: ELISA mean of 3, Ab 1:4 of 0.5 µg/ml
[12] = molecular target: Aβ1-42 peptide, oligomer-enriched preparation; assay: ELISA mean of 3, Ab 1:8 of 0.5 µg/ml
[13] = molecular target: Aβ1-42 peptide, monomer-enriched preparation; assay: ELISA mean of 3, Ab 1:16 of 0.5 µg/ml
[14] = molecular target: Aβ1-42 peptide, oligomer-enriched preparation; assay: ELISA mean of 3, Ab 1:16 of 0.5 µg/ml
[15] = molecular target: Aβ1-42 peptide, monomer-enriched preparation; assay: ELISA mean of 3, Ab 1:32 of 0.5 µg/ml
[16] = molecular target: Aβ1-42 peptide, oligomer-enriched preparation; assay: ELISA mean of 3, Ab 1:32 of 0.5 µg/ml
[17] = molecular target: Aβ1-42 peptide, monomer-enriched preparation; assay: ELISA mean of 3, Ab 1:64 of 0.5 µg/ml
[18] = molecular target: Aβ1-42 peptide, oligomer-enriched preparation; assay: ELISA mean of 3, Ab 1:64 of 0.5 µg/ml
[19] = molecular target: Aβ1-42 peptide, high molecular weight (HMW) proto-fibrillar (PF) oligomer enriched preparation (human); assay: ELISA on coated fraction, Ab 0.5 µg/ml
Aβ1-42 peptide, high molecular weight (HMW) proto-fibrillar (PF) oligomer enriched preparation (human), sequence (peptide, as listed by the source, form in doubt): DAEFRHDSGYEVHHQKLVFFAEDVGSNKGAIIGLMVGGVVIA

[20] = molecular target: Aβ1-42 peptide, low molecular weight (LMW) monomer preparation (human); assay: ELISA on coated fraction, Ab 0.5 µg/ml
Aβ1-42 peptide, low molecular weight (LMW) monomer preparation (human), sequence (peptide, as listed by the source, form in doubt): as above

[21] = molecular target: Aβ1-42 peptide, monomer-enriched preparation; assay: ELISA mean of 3, Ab 1:128 of 0.5 µg/ml
[22] = molecular target: Aβ1-42 peptide, oligomer-enriched preparation; assay: ELISA mean of 3, Ab 1:128 of 0.5 µg/ml
[23] = molecular target: Aβ1-42 peptide, high molecular weight (HMW) proto-fibrillar (PF) oligomer enriched preparation (human); assay: ELISA on coated fraction, Ab 0.25 µg/ml
[24] = molecular target: Aβ1-42 peptide, low molecular weight (LMW) monomer preparation (human); assay: ELISA on coated fraction, Ab 0.25 µg/ml
[25] = molecular target: Aβ1-42 peptide, high molecular weight (HMW) proto-fibrillar (PF) oligomer enriched preparation (human); assay: ELISA on coated fraction, Ab 0.125 µg/ml
[26] = molecular target: Aβ1-42 peptide, low molecular weight (LMW) monomer preparation (human); assay: ELISA on coated fraction, Ab 0.125 µg/ml
[27] = molecular target: Aβ1-42 peptide, high molecular weight (HMW) proto-fibrillar (PF) oligomer enriched preparation (human); assay: ELISA on coated fraction, Ab 0.0078 µg/ml
[28] = molecular target: Aβ1-42 peptide, low molecular weight (LMW) monomer preparation (human); assay: ELISA on coated fraction, Ab 0.0078 µg/ml
[29] = molecular target: Aβ1-42 peptide, high molecular weight (HMW) proto-fibrillar (PF) oligomer enriched preparation (human); assay: ELISA on coated fraction, Ab 0.0156 µg/ml
[30] = molecular target: Aβ1-42 peptide, low molecular weight (LMW) monomer preparation (human); assay: ELISA on coated fraction, Ab 0.0156 µg/ml
[31] = molecular target: Aβ1-42 peptide, high molecular weight (HMW) proto-fibrillar (PF) oligomer enriched preparation (human); assay: ELISA on coated fraction, Ab 0.0313 µg/ml
[32] = molecular target: Aβ1-42 peptide, low molecular weight (LMW) monomer preparation (human); assay: ELISA on coated fraction, Ab 0.0313 µg/ml
[33] = molecular target: Aβ1-42 peptide, high molecular weight (HMW) proto-fibrillar (PF) oligomer enriched preparation (human); assay: ELISA on coated fraction, Ab 0.0625 µg/ml
[34] = molecular target: Aβ1-42 peptide, low molecular weight (LMW) monomer preparation (human); assay: ELISA on coated fraction, Ab 0.0625 µg/ml
[35] = molecular target: Aβ1-42 peptide, high molecular weight (HMW) proto-fibrillar (PF) oligomer enriched preparation (human); assay: ELISA, Ab 1 µg/ml; proto-fibrils against LMW monomers (given without sign)
[36] = molecular target: Aβ1-42 peptide, high molecular weight (HMW) proto-fibrillar (PF) oligomer enriched preparation (human); assay: ELISA, Ab 0.5 µg/ml; proto-fibrils against LMW monomers (given without sign)
[37] = molecular target: Aβ1-42 peptide, high molecular weight (HMW) proto-fibrillar (PF) oligomer enriched preparation (human); assay: ELISA, Ab 0.25 µg/ml; proto-fibrils against LMW monomers (given without sign)
[38] = molecular target: Aβ1-42 peptide, high molecular weight (HMW) proto-fibrillar (PF) oligomer enriched preparation (human); assay: ELISA, Ab 0.125 µg/ml; proto-fibrils against LMW monomers (given without sign)
[39] = molecular target: Aβ1-42 peptide, high molecular weight (HMW) proto-fibrillar (PF) oligomer enriched preparation (human); assay: ELISA, Ab 0.0078 µg/ml; proto-fibrils against LMW monomers (given without sign)
[40] = molecular target: Aβ1-42 peptide, high molecular weight (HMW) proto-fibrillar (PF) oligomer enriched preparation (human); assay: ELISA, Ab 0.0156 µg/ml; proto-fibrils against LMW monomers (given without sign)
[41] = molecular target: Aβ1-42 peptide, high molecular weight (HMW) proto-fibrillar (PF) oligomer enriched preparation (human); assay: ELISA, Ab 0.0313 µg/ml; proto-fibrils against LMW monomers (given without sign)
[42] = molecular target: Aβ1-42 peptide, high molecular weight (HMW) proto-fibrillar (PF) oligomer enriched preparation (human); assay: ELISA, Ab 0.0625 µg/ml; proto-fibrils against LMW monomers (given without sign)

Aβ1-42 peptide, oligomer-enriched preparation, sequence (peptide, as listed by the source, form in doubt): as above
Aβ1-42 peptide, monomer-enriched preparation, sequence (peptide, as listed by the source, form in doubt): as above

For 6E10 control antibody, which O.D. [1] is on record?
Its O.D. is 0.62 O.D.

And the O.D. [2]?
The O.D. was 0.75 O.D.

And the O.D. [3]?
The O.D. was 0.61 O.D.

What about the O.D. [4] of the same substance?
Its O.D. is 0.86 O.D.

And the O.D. [5]?
Its O.D. is 0.66 O.D.

What about the O.D. (mean) [6] of the same substance?
Its O.D. (mean) is 3.83 O.D.

And the O.D. (mean) [7]?
The O.D. (mean) was 3.64 O.D.

And the O.D. (mean) [8]?
The O.D. (mean) was 3.59 O.D.

And the O.D. (mean) [9]?
Its O.D. (mean) is 3.59 O.D.

And the O.D. (mean) [10]?
The O.D. (mean) was 3.27 O.D.

And the O.D. (mean) [11]?
The O.D. (mean) was 3.37 O.D.

And the O.D. (mean) [12]?
Its O.D. (mean) is 2.98 O.D.

What about the O.D. (mean) [13] of the same substance?
The O.D. (mean) was 1.98 O.D.

And the O.D. (mean) [14]?
The O.D. (mean) was 1.92 O.D.

And the O.D. (mean) [15]?
The O.D. (mean) was 1.36 O.D.

What about the O.D. (mean) [16] of the same substance?
Its O.D. (mean) is 1.32 O.D.

What about the O.D. (mean) [17] of the same substance?
Its O.D. (mean) is 0.94 O.D.

And the O.D. (mean) [18]?
The O.D. (mean) was 0.92 O.D.

What about the O.D. [19] of the same substance?
Its O.D. is 2 O.D.

And the O.D. [20]?
Its O.D. is 2.13 O.D.

And the O.D. (mean) [21]?
Its O.D. (mean) is 0.75 O.D.

And the O.D. (mean) [22]?
Its O.D. (mean) is 0.63 O.D.

And the O.D. [23]?
The O.D. was 1.44 O.D.

And the O.D. [24]?
The O.D. was 1.56 O.D.

And the O.D. [25]?
Its O.D. is 0.863 O.D.

And the O.D. [26]?
The O.D. was 0.999 O.D.

And the O.D. [27]?
Its O.D. is 0.116 O.D.

What about the O.D. [28] of the same substance?
Its O.D. is 0.133 O.D.

What about the O.D. [29] of the same substance?
Its O.D. is 0.201 O.D.

What about the O.D. [30] of the same substance?
Its O.D. is 0.207 O.D.

What about the O.D. [31] of the same substance?
Its O.D. is 0.286 O.D.

And the O.D. [32]?
Its O.D. is 0.329 O.D.

What about the O.D. [33] of the same substance?
Its O.D. is 0.544 O.D.

What about the O.D. [34] of the same substance?
Its O.D. is 0.574 O.D.

And the O.D. difference [35]?
The O.D. difference was 0.13 O.D.

What about the O.D. difference [36] of the same substance?
Its O.D. difference is 0.13 O.D.

And the O.D. difference [37]?
The O.D. difference was 0.12 O.D.

What about the O.D. difference [38] of the same substance?
Its O.D. difference is 0.14 O.D.

And the O.D. difference [39]?
Its O.D. difference is 0.02 O.D.

And the O.D. difference [40]?
Its O.D. difference is 0.01 O.D.

What about the O.D. difference [41] of the same substance?
The O.D. difference was 0.04 O.D.

What about the O.D. difference [42] of the same substance?
Its O.D. difference is 0.03 O.D.
